Laboratory results: the nanobody polyreactivity screen of Harvey et al. (2022)

Test: yeast display, Sf9 membrane polyspecificity reagent, FACS + sequencing; frameworks hold sequencing errors
Method in brief: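 Nanobodies came from a synthetic yeast display library in Saccharomyces cerevisiae BJ5465, induced with galactose for 36–48 hours and stained for 1 hour at 4 °C with 10% biotinylated, detergent-solubilized Sf9 membrane reagent. Cells were enriched on streptavidin microbeads and then FACS-sorted, with low and high (top ~1%) gates set on anti-HA fluorescence for expression and streptavidin fluorescence for reagent binding. Each polyreactivity label reflects the gate a clone came from. Genes were amplified by colony PCR, sequenced by MiSeq 2 × 250 and filtered by CDR length.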

Sequence	polyreactivity (PSR sort gate)
QVQLVESGGGLVQAGGSLRLSCAASGSTFTKYAMGWYRQAPGKERELVAAISRSGGGTYYADSVKGRFTISRDNAKNTVYLQMNILKPEDTAVYYCNAALFRGAQFDYWGQGTQVTVSS	high polyreactivity
QVQLVESGGGLVQAGGSLRLSCAASGSTFTLNAMGWYRQAPGKERELVAAITTSGGSTYYADSVKGRFTISRDNAKNTVYLQMNSLKPEDTAVYYCNADGPWREVERPFRKEGNYWGQGTQVTVSS	low polyreactivity
QVQLVESGGGLVQAGGSLRLSCAASGSTFTNNGMGWYRQAPGKERELVATISWDGDSTYYADSVKGRFTISRDNAKNTVYLQMNSLKPEDTAVYYCAADEWGSDSALNFEYWGQGTQVTVSS	low polyreactivity
QVQLVESGGGLVQAGGSLRLSCAASGSTFTNYAMGWYRQAPGKERELLAAINNDRTNYADSVKGRFTISRDNAMNTVYLQMNSLKPEDTAVYYCAARLGGRRRFGYWGQGTQVTVSS	high polyreactivity
QVQLVESGGGLVQAGGSLRLSCAASGSTFTPNAMGWYRQAPGKERELVAAIRGLNGRTYYADSVKGRFTISRDNAKNTVYLQMHSLKPEDTAVYYCAAGGYSYYFAWHDYWGQGTQVTVSS	low polyreactivity
QVQLVESGGGLVQAGGSLRLSCAASGSTFTPYAMGWYRQAPAKERELVAAITSGGPTNYADSVKGRFTISRDNAKNTVYLQMNSLKPEDTAVYYCNAEYLYWWEIYDYWGQGNQVTVSS	high polyreactivity
QVQLVESGGGLVQAGGSLRLSCAASGSTFTPYAMGWYRQAPGKEREFVARISWTGGSTYYADSVKGRFTISRDIAKNTVYLQMNSLKPEDTAVYYCNADRYRWYDHGYYYWGQGTQVTVSS	high polyreactivity
QVQLVESGGGLVQAGGSLRLSCAASGSTFTPYVMGWYRQAPGKERELVAAIRRRGGSTYYADSVKGRFTISRDNAKNSVYLQMNSLKPEDTAVYYCATDWSWLSLKFDYWGQGTQVTVSS	high polyreactivity
QVQLVESGGGLVQAGGSLRLSCAASGSTFTQYVMGWYRQAPGKERDLVAAISDSGSTYYADSVKGRFTISRDNAKNTVYLQMNRLKPEDTAVYFCNADDVDFYYGYGYLDYDYWGQGTQVTVSS	low polyreactivity
QVQLVESGGGLVQAGGSLRLSCAASGSTFTRNAMGWYREAPGTERELVAAISFSGGSTYYADSVKGRFTISRDNAKNTVYLQMNSLKPEDTAVYYCATKVEYRYYYWGQGTQVTVSS	high polyreactivity
QVQLVESGGGLVQAGGSLRLSCAASGSTFTRNAMGWYRQAPGKERELVAAITSSGGSTYYADSVKGRFTISRDNAKITVYLQMNSLKPEDTAVYYCAAYPHRPRDRELDHWGQGTQVTVSS	low polyreactivity
QVQLVESGGGLVQAGGSLRLSCAASGSTFTRNAMGWYRQAPGKERELVAAITSSGGSTYYADSVKGRFTISRDNAKNTVYLQMNSLKPEDTAVYYCNADFRTYYDSEYDYWGQGTQVTVSS	low polyreactivity
QVQLVESGGGLVQAGGSLRLSCAASGSTFTRYAMGWNRQAPGKARELVAAINWSGTSTYYADSVKGRFTISRDNAMNTVYLQMNSLKPEATAVYYSNAYTVRSYRFDYWGQGTQVTVSS	high polyreactivity
QVQLVESGGGLVQAGGSLRLSCAASGSTFTRYAMGWYRQAPGKERELVAAISGGGSTNYADSVKGRFTISRDNANNTVYLQKNSLKPEVTAVYFCAARVRTTGYSQMYYWGQGTQVTVSS	low polyreactivity
QVQLVESGGGLVQAGGSLRLSCAASGSTFTRYAMGWYRQAPGKERELVAAISGGGSTNYADSVKGRFTISRDNSKNTVYLQMNSLKPEDTAVYYCAARVRTTGYSQMYYWGQGTQVTVSS	low polyreactivity
QVQLVESGGGLVQAGGSLRLSCAASGSTFTRYGMGRYRQAPGKERELVAAITTSGSSTYYADSVKGRFTISRDNAKNTVYLQMNSLKPEDTAVYYCAADWSSWGFDYWGQGTQVTVSS	low polyreactivity
QVQLVESGGGLVQAGGSLRLSCAASGSTFTSNTMGWCRQAPGKERELVAGITGAGSTNYADSVKGRFTISRDNEKNTVYLQMNSLKPEDTAVYYCAASVRWPRVSQRARYGYYYWGQGTQVAVSS	high polyreactivity
